The values below come from the supplement of paper PMC9170038.

This series concerns MS2 coat protein. Kind of series: apparent KD of MS2 coat protein; higher = weaker reporter binding. The note with it: Eterna round: R107. The method, boiled down:
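Designed RNA switches, transcribed on-chip from Illumina sequencing clusters, were titrated with SNAP-549-labelled MS2 coat protein from 0.7 or 1.5 nM to 3 µM in twofold steps. The solution was 100 mM Tris-HCl pH 7.5, 80 mM KCl, 4 mM MgCl2, with constant ligand or without it. Apparent KD is the median over each design's normalised cluster binding-curve fits.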

Setting [1] is: input ligand: theophylline 20 uM.
The mark [2] stands for this setting: input ligand: theophylline 2 mM.
Where [3] appears, read: input ligand: tryptophan 2.4 mM.

As to “UCGUUUGAGGCGGCCGCCACUGGUCUCAUGGUCAACAUGAGGAUCACCCAUGUAUCUUUGCCAAGCAGGACCGGGCCUCGAGCGA [#20 Exclusion Tryptophan B]”, the “apparent KD of MS2 coat protein” value (input ligand: arginine 13.2 mM) was 28.1 nM; the “apparent KD of MS2 coat protein” value (input ligand: none) amounted to 23.6 nM; the “apparent KD of MS2 coat protein” value under setting [1] worked out at 41.4 nM; the “apparent KD of MS2 coat protein” value under setting [2] came out at 29.1 nM; the “apparent KD of MS2 coat protein” value under setting [3] was found to be 14.8 nM.

In the case of “AACAAUGCACAUGAGGAUCACCCAUGUGAUACCAGCCGCAACAUAGGCCCUUGGCAGCAUGUGGGUAUAGAACGAUUUGGCUGAA [Xeanle]”, the “apparent KD of MS2 coat protein” value is, setting by setting: (input ligand: arginine 13.2 mM) 24.4 nM; under setting [1], 85.3 nM; under setting [3], 41.7 nM.

Consider “UUAUUUAUAAAUGAUACCAGCCGAUUGGCCGCAAAUCCUAACAUGAGGAUCACCCAUGUCGGCCCUUGGCAGCAUUUAUGGGUUU [XTheo B #28]”, for which the “apparent KD of MS2 coat protein” value was determined as 56 nM (input ligand: arginine 13.2 mM), 134 nM under setting [1] and 65.1 nM under setting [3].

With “AAAUACAUGAGGAUCACCCAUGUCAAUAAUCGAGGACCGGUACGGCCGCCACUCGAUCGGCCAAGAAAAUGAAAGAUGAUCUCUA [theeternabot_sameState_MS2_Trp_A_8]”, the “apparent KD of MS2 coat protein” value (input ligand: arginine 13.2 mM) is 18.1 nM, the “apparent KD of MS2 coat protein” value under setting [1] stood at 37.5 nM and the “apparent KD of MS2 coat protein” value under setting [2] was determined as 27.4 nM.

With “UUCUUUAAGUCGGCCGCCACUGAAACAUGAGGAUCACCCAUGUAAAUUUGGGAGUAGGUAUAUUACAGGACCGGGACUAUAGUAA [JR_ExcTryptoB_Sub021]”, the “apparent KD of MS2 coat protein” value (input ligand: arginine 13.2 mM) stood at 29.2 nM, the “apparent KD of MS2 coat protein” value under setting [1] was determined as 31.2 nM and the “apparent KD of MS2 coat protein” value under setting [2] was 27.3 nM.

Consider “UAUCGCGCGGCGGCCGCCACUAAUGGCAGAUCUGUCGACUAACAUGAGGAUCACCCAUGUCUAACUAGGACCGGGCCCAAGUUGU [theeternabot_sameState_MS2_Trp_B_7]”, for which the “apparent KD of MS2 coat protein” value is, setting by setting: (input ligand: arginine 13.2 mM) 30.5 nM; under setting [1], 66.2 nM; under setting [2], 59 nM.

Turning to “AAAUAAAUCACAUGAGGAUCACCCAUGGAUACCAGGCCUGGAAACAGCCCUUGGCAGCCACAUGAGGAUCACCCAUGUGCUAAAU [MAT - Exclusion Theophlline A - Mod of Eli - D2]”, the “apparent KD of MS2 coat protein” value was found to be 98.4 nM (input ligand: arginine 13.2 mM), 207 nM under setting [1] and 140 nM under setting [3].

As for “GCGCUAUUUAUUGAUACCAGAUACAGGAAUCACAUGAGGAUCACCCAUGUGGAAUGAAGGAUCCCUUGGCAGCAAUAGUCAAAAU [theeternabot_sameState_MS2_Theo_B_9]”, the “apparent KD of MS2 coat protein” value turned out to be 16.6 nM (input ligand: arginine 13.2 mM), 19.6 nM under setting [1] and 19.9 nM under setting [3].

As for “ACAUGAGGAUCACCCAUGUAUUACCGGGAAGGAGCGCGUAAGGACGCAGGUAGGUCGCUCGGCGUCGUGCUGUAAAGCACGACGA [#1 Same State - Arginine A Attempt #24 (HarryS)]”, the “apparent KD of MS2 coat protein” value (input ligand: arginine 13.2 mM) came to 67.7 nM; the “apparent KD of MS2 coat protein” value (input ligand: none) came out at 14.9 nM; the “apparent KD of MS2 coat protein” value under setting [1] was found to be 18.6 nM; the “apparent KD of MS2 coat protein” value under setting [2] turned out to be 14.9 nM; the “apparent KD of MS2 coat protein” value under setting [3] turned out to be 15.3 nM.

As for “ACACGUGACAAGGAUACCAGCCUGGCUAGUUCAAACCCUCACAUGAGGAUCACCCAUGUAGGCCCUUGGCAGCCUAUAGUCUAAG [theeternabot_exclusion_MS2_Theo_B_38]”, the “apparent KD of MS2 coat protein” value (input ligand: arginine 13.2 mM) was determined as 27.7 nM, the “apparent KD of MS2 coat protein” value under setting [1] was 43.7 nM and the “apparent KD of MS2 coat protein” value under setting [3] worked out at 29.9 nM.

With “ACAUGAGGAUCACCCAUGUGGCGAGUUGAUACCAGACCCGCACUAGUCCCUUGGCAGCAACUACGUGUGGGACACCCAUGUUAAG [qpqmullin]”, the “apparent KD of MS2 coat protein” value reads like this: (input ligand: arginine 13.2 mM) 35.1 nM; (input ligand: none) 57.6 nM; under setting [1], 76.2 nM; under setting [2], 77.1 nM; under setting [3], 39.5 nM.

Regarding “UUUGAUAUGACAGAUACCAGCGUGUUGUUGAACAUGAGGAUCACCCAUGUAGUGAUCAAGCGCCCUUGGCAGCUGGUGUGUUAGG [7.P]”, the “apparent KD of MS2 coat protein” value runs as follows: (input ligand: arginine 13.2 mM) 55.5 nM; under setting [1], 323 nM; under setting [3], 158 nM.

“CUCAUCCACGCGGCCGCCACUAUAUUGUGGUGUGAGUGUGACGUAUUACAUGAGGAUCACCCAUGUAGGACCGGGCGUGGAUGAG [#06 Exclusion Tryptophan B]”: the “apparent KD of MS2 coat protein” value was found to be 30.9 nM (input ligand: arginine 13.2 mM), 51.3 nM under setting [1] and 50.2 nM under setting [2].

Regarding “AGCAGUACAACAGAUACCAGACUUUUAAUGCCUCUAAUUACAUGAGGAUCACCCAUGUUUGUCCCUUGGCAGCUGUUGUACUGCA [JR_ExcTheophyB_Sub010]”, the “apparent KD of MS2 coat protein” value (input ligand: arginine 13.2 mM) was found to be 72.4 nM, the “apparent KD of MS2 coat protein” value under setting [1] amounted to 200 nM and the “apparent KD of MS2 coat protein” value under setting [3] stood at 124 nM.

As for “AGCGAUAUGCAUGAUACCAGCUACAUGAGGAUCACCCAUGUGCGUCAGAAAUGACUGUGUAGCCCUUGGCAGCAUAAAGCAUGUA [Exclusion - Theophylline B (Freestyle 10)]”, the “apparent KD of MS2 coat protein” value (input ligand: arginine 13.2 mM) worked out at 32.3 nM, the “apparent KD of MS2 coat protein” value under setting [1] is 50.7 nM and the “apparent KD of MS2 coat protein” value under setting [3] turned out to be 38.5 nM.

On to “GACAGAAACUGAAGGAGCGAGGUAAAACGGGAUGAGCAAACAUGAGGAUCACCCAUGUGGCCUCAGGUAGGUCGCAGAAAGAAAC [Exclusion Arginine B GF24]”, for which the “apparent KD of MS2 coat protein” value worked out at 180 nM (input ligand: arginine 13.2 mM); 130 nM (input ligand: none); 183 nM under setting [1]; 123 nM under setting [2]; 135 nM under setting [3].

On to “GAGUAGAGGACGGCCGCCACUGAACAUGAGGAUCACCCAUGUCGUGAUCCGUUACCUAGGGUAGAUAGGACCGGGUCAUGUACUC [Exclusion Tryptophan B GF 18]”, for which the “apparent KD of MS2 coat protein” value runs as follows: (input ligand: arginine 13.2 mM) 37.2 nM; under setting [1], 68.8 nM; under setting [2], 56.7 nM.

Turning to “AACGUAUACAGAAGGAGCGUGAAUUAUUUUAUUUUUUUAUAAACAUGAGGAUCACCCAUGUCACAGGUAGGUCGCUGUAUUCGUA [JR_ExcArginiB_Sub018]”, the “apparent KD of MS2 coat protein” value (input ligand: arginine 13.2 mM) came out at 23.8 nM; the “apparent KD of MS2 coat protein” value (input ligand: none) was found to be 18.4 nM; the “apparent KD of MS2 coat protein” value under setting [1] came out at 40.5 nM; the “apparent KD of MS2 coat protein” value under setting [2] amounted to 22.8 nM; the “apparent KD of MS2 coat protein” value under setting [3] stood at 19.2 nM.
